Data set [1] can be described thus: in vitro. It counts as in vitro ADME. The following applies: plasma. The method, then:
(§1) To investigate the stability of the conjugates in mouse, cyno monkey, dog, and human plasma, conjugate mCMD307 was incubated in plasma for 24 h (Table 13). At certain time intervals a sample of plasma was taken and plasma proteins precipitated. Samples were analyzed using LC-MS.

The format of data set [2] is in vivo, mouse. As for the experimental part: […]. Peptide dissolved in PBS (pH 8.2) was administered via i.v. or s.c. route into CD1 mice ([…]). Blood samples were collected at the indicated time points and analyzed by in vitro GLP-1R activity assay. The assay was performed in triplicate. Pharmacokinetic analyses were determined by noncompartmental analysis with WinNonLin.
[…]. It is also noteworthy that although our focus for half-life extension was on the serum-binding ability of the stapled peptide, there may be a combination of effects, for example self-assembly and depoting at the injection site, that led to the delayed onset of Cmax and the extended half-life.
CHOK1 cells stably overexpressed human GLP-1R or GIPR (20 μL of 5000 cells per well) were seeded in a white solid 384 well plate covered with metal lid and incubated overnight. On day 2, the culture medium was replaced by fresh medium containing no FBS (for 0% FBS group). Cells were treated with 5 μL peptide in 12-point dose response, in culture medium with 0.5 mM IBMX in triplicate for 30 min at 37° C., 5% CO2. cAMP dynamic 2 kit from Cisbio was used to detect cAMP level. Briefly, 25 μL of cAMP detection reagent (1:1:38 of cAMP-d2, Cryptate conjugate, lysis buffer) per well was added and incubated at room temperature for 1 h. For cell negative control wells, cAMP detection reagent without d2 was added. […] Animals Animal care and experimental procedures were approved by the Institutional Animal Care and Use Committee (IACUC) of Calibr at the Scripps Research Institute, strictly following the NIH guidelines for humane treatment of animals. Pharmacokinetics of peptides in mice Female CD-1 mice (n=4 per group) from Charles River Laboratory were fasted overnight and administered 100 μL of each peptide in phosphate buffered saline by intravenous (i.v.) or subcutaneous (s.c.) route. Food was provided to mice after blood collection at 3 h time point. Blood was collected into heparin tubes and centrifuged at 3,000×g for 15 min. The resulting plasma were then stored at −80° C. for peptide concentration determination. The concentrations of peptides in plasma at each time point were determined by in vitro cell based activity assay. Briefly, HEK293-GLP-1R-CRE cells were treated with plasma samples at different time points (5-point dose response, starting from 1:10 to 1:100 dilution of each plasma sample) and incubated for 16 h in DMEM with 10% FBS at 37° C. with 5% CO2, and the firefly luciferase activity was then measured. Simultaneously, the same peptides were used to obtain standard curves and parameters for Bottom, Top, EC50, and Hill Slope. Relative luciferase unit (RLU) for each plasma sample was used to calculate the peptide concentrations in plasma (nmol/L), using parameters derived from the standard curve: (RLU=Bottom+(Top−Bottom)/(1+10^(Log EC50−Conc.)×Hill Slope)) Peptide concentrations in plasma were obtained and plotted against time points to obtain in vivo half-life of each peptide, using WinNonLin Phoenix software (Pharsight Corp, St. Louis, MO). Oral glucose tolerance test (OGTT) Female Charles River CD-1 mice were fasted overnight and then administrated 150 μL of each peptide in PBS (pH=8.2) by i.v. or s.c. route. […]. Body weight and food intake were monitored daily throughout the study. At the end of the experiment, mice were sacrificed, and visceral fat mass was weighed. Collected plasma was used for cholesterol level determination according to the manufacturer's guide (cholesterol assay kit, Abcam, Cambridge, England) and triglyceride level using a triglyceride colorimetric assay kit (Cayman chemical, Ann Arbor, Michigan). Oil red staining Frozen tissue sections of liver were cut at 10 μm and air dried onto the slides. After fixation in 10% formalin for 5 min, the slides were briefly washed with running tap water for 10 min, followed by rinsing with 60% isopropanol. Subsequently, oil red 0 working solution (0.3% oil red 0) was used to stain lipid for 15 min. […]

A short description of data set [3]: Plasma stability, 24 h incubation in mouse plasma (LC-MS). It counts as in vitro ADME. As for the experimental part: as §1
Another data set deals with human GLP-1R (Homo sapiens, UniProt P43220). The data set can be described thus: In vitro receptor activation reporter assay (CRE-Luc, HEK293-GLP-1R-CRE cells; receptor-mediated cAMP synthesis). The following applies: read-out: EC50 GLP1R. Further details: expressed in transfected cells; host or cells: HEK293 (CRE-HEK293, HEK293-GLP-1R-CRE). Type of data set: cell-based. (In general: In a reporter assay the amount or activity of a reporter protein is the signal.)

The nature of data set [4]: in vitro. It counts as in vitro ADME, cyno monkey. The following applies: monkey, plasma. The method, then:
as §1

The nature of data set [5]: High-fat-diet-induced obesity (DIO) mouse model, chronic administration. Type of data set: in vivo. The following applies: DIO mice.
Data set [6] can be described thus: Acute oral glucose tolerance test (OGTT) in wild-type mice, 2 h and 96 h post injection. Type of data set: in vivo, mouse. The following applies: 96 h after administration; 10 nmol/kg s.c.
The target of another data set is T1, human GIPR (Homo sapiens, UniProt P48546).
T1 construct: expressed in transfected cells; host or cells: HEK293 (CRE-HEK293, HEK293-GIPR-CRE)
T1 sequence (P48546 22-466): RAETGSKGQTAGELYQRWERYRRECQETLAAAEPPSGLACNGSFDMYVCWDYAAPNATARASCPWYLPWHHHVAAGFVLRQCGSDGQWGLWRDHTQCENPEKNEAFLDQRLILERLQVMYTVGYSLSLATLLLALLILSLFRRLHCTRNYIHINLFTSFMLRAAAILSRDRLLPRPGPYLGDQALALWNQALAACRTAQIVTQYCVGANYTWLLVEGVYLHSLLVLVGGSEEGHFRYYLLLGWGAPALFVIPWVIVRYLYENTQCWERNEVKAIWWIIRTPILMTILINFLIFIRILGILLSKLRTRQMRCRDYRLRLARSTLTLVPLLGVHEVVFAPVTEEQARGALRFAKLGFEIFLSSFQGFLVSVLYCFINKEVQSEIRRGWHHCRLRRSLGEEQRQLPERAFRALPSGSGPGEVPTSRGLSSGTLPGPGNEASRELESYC
Nature of the data set: In vitro receptor activation reporter assay (CRE-Luc, HEK293-GIPR-CRE cells; receptor-mediated cAMP synthesis). Type of data set: cell-based.

Molecules are shown by their SMILES. Read-outs that look alike come from different tables or passages of the source.

human GLP-1R, sequence (P43220 24-463): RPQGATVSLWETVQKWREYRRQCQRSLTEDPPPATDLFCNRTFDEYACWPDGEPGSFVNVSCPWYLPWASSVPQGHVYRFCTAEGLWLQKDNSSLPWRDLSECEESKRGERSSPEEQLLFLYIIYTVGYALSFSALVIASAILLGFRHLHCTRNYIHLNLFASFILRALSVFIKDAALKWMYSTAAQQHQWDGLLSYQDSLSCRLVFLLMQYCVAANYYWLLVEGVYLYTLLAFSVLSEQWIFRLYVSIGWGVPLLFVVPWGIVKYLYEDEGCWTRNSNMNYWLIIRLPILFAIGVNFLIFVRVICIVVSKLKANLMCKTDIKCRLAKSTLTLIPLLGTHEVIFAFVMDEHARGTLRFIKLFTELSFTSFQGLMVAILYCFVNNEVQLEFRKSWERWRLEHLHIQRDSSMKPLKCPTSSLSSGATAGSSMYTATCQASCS
Procedure for human GIPR: (§2) HEK293 cells were infected with lentivirus encoding firefly luciferase gene under the control of cAMP responsive element (CRE) promoter (Qiagen, The Netherlands) and then were selected using 1 μg mL^−1 puromycin (Life Technologies, Carlsbad) for 1 week. The surviving cells (referred to as CRE-HEK293) were expanded and then transfected with a G418 selective mammalian expression plasmid encoding human GLP-1R or GIPR. In brief, GLP-1R or GIPR plasmid was transfected into CRE-HEK293 cells using Lipofectamine 2000 and selected with 400 μg mL^−1 Geneticin (Life Technologies, Carlsbad, CA). Single colony stable cell line overexpressing CRE-luciferase and GLP-1R or GIPR (HEK293-GLP-1R-CRE or HEK293-GIPR-CRE) was then established for in vitro activity assay.
(§3) The EC50 of each peptide was determined using GraphPad Prism 6 software (GraphPad, San Diego, CA).
Procedure for human GLP-1R: as §2, §3
HEK293 cells were infected with lentivirus encoding firefly luciferase gene under the control of cAMP responsive element (CRE) promoter (Qiagen, The Netherlands) and then were selected using 1 μg/mL puromycin (Life Technologies, Carlsbad) for 1 week. The surviving cells (referred to as CRE-HEK293) were expanded and then transfected with a G418 selective mammalian expression plasmid encoding human GLP-1R. In brief, GLP-1R plasmid was transfected into CRE-HEK293 cells using Lipofectamine 2000 and selected with 400 μg/mL Geneticin (Life Technologies, Carlsbad, CA). Single colony stable cell line overexpressing CRE-luciferase and GLP1R was then established for in vitro activity assay.

Broadly, the share remaining is the share of the starting amount still present when the sample was taken. The term Tmax denotes the time at which the peak concentration occurs. By Cmax is commonly meant the maximum level reached in the sampled fluid or tissue. Usually Vd stands for the apparent volume that relates the amount in the body to the concentration in plasma or blood. The clearance is the rate of elimination divided by the concentration. Broadly, the half-life is how long it takes for the measured level to halve. Take `CC[C@H](C)[C@H](NC(=O)[C@H](CO)NC(=O)[C@H](Cc1ccc(O)cc1)NC(=O)[C@H](CC(=O)O)NC(=O)[C@H](CO)NC(=O)[C@@H](NC(=O)[C@H](Cc1ccccc1)NC(=O)[C@@H](NC(=O)CNC(=O)[C@H](CCC(=O)O)NC(=O)C(C)(C)NC(=O)[C@@H](N)Cc1ccc(O)cc1)[C@@H](C)O)[C@@H](C)O)C(=O)N[C@@H](Cc1ccc(O)cc1)C(=O)N[C@H]1CCCCNC(=O)CN(C(=O)CCNC(=O)CCOCCOCCOCCNC(=O)CCCCCCCCCCCCCCCCC(=O)O)CC(=O)NCCCC[C@@H](C(=O)N[C@@H](Cc2ccccc2)C(=O)N[C@H](C(=O)N[C@@H](CC(N)=O)C(=O)N[C@@H](Cc2c[nH]c3ccccc23)C(=O)N[C@@H](CC(C)C)C(=O)N[C@@H](CC(C)C)C(=O)N[C@@H](C)C(=O)NCC(=O)NCC(=O)N2CCC[C@H]2C(=O)N[C@@H](CO)C(=O)N[C@@H](CO)C(=O)NCC(=O)N[C@@H](C)C(=O)N2CCC[C@H]2C(=O)N2CCC[C@H]2C(=O)N2CCC[C@H]2C(=O)N[C@@H](CO)C(N)=O)C(C)C)NC(=O)C(C)(C)NC(=O)[C@H](C)NC(=O)[C@H](C)NC(=O)[C@H](CCC(N)=O)NC(=O)[C@H](CCCCN)NC(=O)[C@H](CC(=O)O)NC1=O` [mCMD307, YAibEGT-FTSDY-SIYXD-KQAAAib-XFVNW-LLAGG-PSSGA-PPPS-NH2 (where each X is K) (SEQ ID NO: 39)]: the fraction remaining at 24 h worked out at 92% in the data set “in vitro [1]” (dog), 92% in “in vitro [1]” (human), 53% in data set [3] and 87% in the data set “in vitro [4]”. Further, the AUC0-last in data set [2] (Table 6, plasma, route not given) was determined as 59200 ± 6810 ng·h/mL. The time of peak concentration (Tmax) in data set [2] (Table 6, plasma, route not stated in table (s.c. 1 mg kg-1 / i.v. 0.3 mg kg-1 per FIG. 3)) amounted to 2.33 ± 1.16 h. The Cmax in data set [2] (mouse, in vivo) is 4710 ± 659 ng/mL. The Vd in data set [2] (mouse, in vivo) stood at 0.18 ± 0.05 L/kg. Also, the clearance in data set [2] (mouse, in vivo) was found to be 0.28 ± 0.04 mL/min/kg. Besides, in data set [2] (mouse, in vivo), the half-life is 11.6 ± 0.85 h. In addition, the EC50 at human GLP-1R (Table 7) amounted to 0.01 nM; on human GLP-1R (Table 8), 0.03 nM; on human GIPR (Table 8, read-out: EC50 GIPR), 0.01 nM; on human GIPR (unnumbered table, run 02/19, read-out: EC50 GIPR 02/19) it was 0.04 nM. In addition, the “body weight, food intake” value in data set [5] (40 μg/kg, FIG. 5A) is “significantly reduced body weight food intake”. In addition, the fed blood glucose entry in data set [5] (day 21, versus PBS, FIG. 5B) is “significantly lower than compared to PBS-treated DIO mice”. The body weight entry in data set [5] (s.c., FIG. 5A) is “steady reduction in body weight”. Also, the “fasting blood glucose levels” value in data set [5] (s.c., FIG. 5A) is “steady reduction”. Also, the fasted glucose levels entry in data set [6] is listed as “significantly reduce fasted glucose levels”. The “glucose handling (OGTT) versus vehicle” value in data set [6] was “more significant improvements in handling glucose”.

Values taken from patent US12329823B2 (The Scripps Research Institute, priority 2021, dated 2025).
